# From US20070202501A1
# How the values were obtained:
# Assay in all cases: cell-based or functional assay
# [1] = biological target: in-frame fusion between the extracellular domain of 2KIRDL3 (KIR2DL3) and the cytoplasmic ITIM motif of NKIR (pCXND3KIR58NKIR313), expressed in Jurkat cells (human) (UniProt P43628)
# [2] = biological target: CD8-NKIR fusion protein (extracellular domain of CD8 alpha chain fused to the cytoplasmic ITIM motif of NKIR; pCXND3CD8NKIRfull), expressed in F11 Jurkat reporter cells (human) (UniProt P01732)
# [3] = biological target: CD8-KIR fusion protein (extracellular domain of CD8 alpha chain fused to the cytoplasmic ITIM motif of KIR; pCXND3CD8KIRfull), expressed in F11 Jurkat reporter cells (human) (UniProt P01732)
# Sequence of UniProt P43628 (P43628 other isoform, or with tags, fused parts or gaps limits assumed): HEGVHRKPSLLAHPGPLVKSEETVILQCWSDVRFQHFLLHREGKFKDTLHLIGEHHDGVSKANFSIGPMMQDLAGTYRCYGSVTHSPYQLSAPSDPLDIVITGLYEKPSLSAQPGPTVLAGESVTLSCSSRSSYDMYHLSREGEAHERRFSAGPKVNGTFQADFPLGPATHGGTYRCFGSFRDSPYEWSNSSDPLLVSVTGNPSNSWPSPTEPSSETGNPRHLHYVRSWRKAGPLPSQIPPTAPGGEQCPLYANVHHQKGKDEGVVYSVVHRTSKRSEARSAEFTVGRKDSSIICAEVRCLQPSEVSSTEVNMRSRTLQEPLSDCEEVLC
"inhibition of luciferase activity (NFAT-luciferase reporter, anti-CD3 stimulated chimeraA10ZEOR12 cells, GL183 1 µg/ml then rat anti-mouse IgG cross-linking) [1]","degree of reduction of luciferase reporter activity (NFAT-luciferase, 10-hour ConA stimulation, LT8 1.5 µg/ml; clone NKIR#16) [2]","degree of reduction of luciferase reporter activity (NFAT-luciferase, 10-hour ConA stimulation, LT8 1.5 µg/ml; clone NKIR#19) [2]","degree of reduction of luciferase reporter activity (NFAT-luciferase, 10-hour ConA stimulation, LT8 1.5 µg/ml) [3]",Substance
33.3%,–,–,–,GL183 monoclonal antibody (Beckman Coulter)
–,21.2%,30.2%,16.6%,"anti-CD8 antibody LT8 (Serotec, MCA1226XZ)"
